Tests used:
[1] = tested on: PNA-Caspase 3 dual-labeled peptide chimera: PNA-Linker-Cys His His His His His His Asp Glu Val Asp Ala Lys-(C18-spacer)-Cy3
[2] = tested on: biotinylated Caspase 3 peptide substrate with end-labeled fluorescent dye Cy5

Row | Substance | fluorescent Cy3/Cy5 signal ratio (Caspase 3 at 0 to 4 ng/µl) [1] | percentage of the residual assay intensity ratio relative to the negative control (PNA-peptide chimera III) | percentage of the residual assay intensity ratio relative to the negative control (PNA-peptide chimera II) | percentage of the residual assay intensity ratio relative to the negative control (PNA-peptide chimera I) | Cy5 signal intensity at 1000 ms integration of uncut substrate (Caspase 3 at 8 to 0 microgram/ml) [2]
1 | Caspase 3 | the fluorescent Cy3/Cy5 signal ratio decreases from approximately 1 to 0.6 | 112.03% | 82.35% | 53.48% | The Cy5 signal intensity at 1000 ms integration increased from about 2600 to 5200 units for a decreasing Caspase 3 concentration ranging from 8 to 0 microgram/ml
2 | Caspase 6 | – | 79.08% | 41.18% | 91.80% | –
3 | Caspase 8 | – | 59.89% | 69.41% | 73.77% | –

Reference: US20040038217
